To fix the notation:
B1: TPR 5TU (parent)
chain: GGAUCUUCUCGAUCUAACAAAAAAGACAAAUCUGCCACAAAGCUUGAGAGCAUCUUCGGAUGCAGAGGCGGCAGCCUUCGGUGGCGCGAUAGCGCCAACGUUCUCAACUAUGACACGCAAAACGCGUGCUCCGUUGAAUGGAGUUUAUCAUG

Fewer inactive variants are shown than the library holds.

The variants in the data set derive from B1. In words: polymerase ribozyme fitness, log enrichment relative to wild type (log ratio); higher = more active; in vitro selection for triplet polymerase activity. An outline of the steps:
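Frozen incubation at −7 °C formed the core of a single, triplicate in vitro selection round applied to PCR-built, transcribed mutant libraries of each subunit of a heterodimeric triplet polymerase ribozyme. Extended constructs were gel-excised, captured with streptavidin beads and amplified by RT-PCR, and input and output libraries were Illumina-sequenced with a filter of ≥10 input reads and ≥1 read per output. Fitness is the logarithm of genotype enrichment relative to wild-type enrichment, with inverse-variance-weighted replicate averaging, and the logarithm is base 2.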
In the case of GGAUCUUCUCGAUCUAACAAAAAAGACAAAUCUGCCACAAAGCUUGAGAGCAUCUUCGGAUGCAGAGGCGGCAGCCUUCGGUGGCGCGAUAGCGCCAAUGUUCUCAACUAUGACACGCAAAACGUGUGCUCCGUUGAAUGGAGUUUAUCAUG [C99U C125U], the “polymerase ribozyme fitness (log ratio)” value was 0.0952. As for GGAUCUUCUCGAUCUAACAAAAAAGACAAAUCUGCCACAAAGCUUGAGAGCAUCUUCGGAUGCAGAGGCGGCAGCCUUCGGUGGCGCGAUAGCGCCAAUGUUCUCAACUAUGACACGCAAAACGCGUGCUCCGUUGAAUGGAGUUUAUCGUG [C99U A150G], the “polymerase ribozyme fitness (log ratio)” value is -0.552. Then GGAUCUUCUCGAUCUAACAAAAAAGACAAAUCUGCCACAAAGCUUGAGAGCAUCUUCGGAUGCAGAGGCGGCAGCCUUCGGUGGCGCGAUAGCGCCAAUGUUCUCAACUAUGACACGCAAAACGCGUGCUCCGUUGAAUGGAGUUUAUCCUG [C99U A150C], with at most -4.2; and GGAUCUUCUCGAUCUAACAAAAAAGACAAAUCUGCCACAAAGCUUGAGAGCAUCUUCGGAUGCAGAGGCGGCAGCCUUCGGUGGCGCGAUAGCGCCAAAGUUCUCAACUAUGACACGGCAAACGCGUGCUCCGUUGAAUGGAGUUUAUCAUG [C99A C118G A119C], with -0.582; and GGAUCUUCUCGAUCUAACAAAAAAGACAAAUCUGCCACAAAGCUUGAGAGCAUCUUCGGAUGCAGAGGCGGCAGCCUUCGGUGGCGCGAUAGCGCCAAGGUUCUCAACUAUGACACGCAACACGCGUGCUCCGUUGAAUGGAGUUUAUCAAG [C99G A121C U151A], with at most -4.2. GGAUCUUCUCGAUCUAACAAAAAAGACAAAUCUGCCACAAAGCUUGAGAGCAUCUUCGGAUGCAGAGGCGGCAGCCUUCGGUGGCGCGAUAGCGCCAAGGUUCUCAACUAUGACACGCAAAACGCGUGAUCCGUUGAAUGGAGUUUAUCAUG [C99G C129A]: the “polymerase ribozyme fitness (log ratio)” value is -3.81. Regarding GGAUCUUCUCGAUCUAACAAAAAAGACAAAUCUGCCACAAAGCUUGAGAGCAUCUUCGGAUGCAGAGGCGGCAGCCUUCGGUGGCGCGAUAGCGCCAAAGGUCUCAACUAUGACACGCAAAACGCGUGCUCCGUUGAAUGGAGUUUAUCAUG [C99A U101G], the “polymerase ribozyme fitness (log ratio)” value was -3.16. For GGAUCUUCUCGAUCUAACAAAAAAGACAAAUCUGCCACAAAGCUUGAGAGCAUCUUCGGAUGCAGAGGCGGCAGCCUUCGGUGGCGCGAUAGCGCCAAAGUUCUCAACUAUGAUACGCAAAACGCGUGCUCCGUGGAAUGGAGUUUAUCAUG [C99A C114U U135G], the “polymerase ribozyme fitness (log ratio)” value is -3.68. To GGAUCUUCUCGAUCUAACAAAAAAGACAAAUCUGCCACAAAGCUUGAGAGCAUCUUCGGAUGCAGAGGCGGCAGCCUUCGGUGGCGCGAUAGCGCCAAAGUUCUCAACUAUGACACGCAAAACGCGUGCUCCGUUGAAUGGAGUUUAGCAUG [C99A U148G] belongs at most -4.2; to GGAUCUUCUCGAUCUAACAAAAAAGACAAAUCUGCCACAAAGCUUGAGAGCAUCUUCGGAUGCAGAGGCGGCAGCCUUCGGUGGCGCGAUAGCGCCAAGGUUCUCAACUAUGACACCCAAAGCGCGUGCUCCGUUGAAUGGAGUUUAUCAUG [C99G G117C A122G], -1.51; to GGAUCUUCUCGAUCUAACAAAAAAGACAAAUCUGCCACAAAGCUUGAGAGCAUCUUCGGAUGCAGAGGCGGCAGCCUUCGGUGGCGCGAUAGCGCCAAGGUUCUCAACUAUGACACGUAAAACGCGUGCUCCGUUGAAUGGAGUUUAACAUG [C99G C118U U148A], at most -4.2. With GGAUCUUCUCGAUCUAACAAAAAAGACAAAUCUGCCACAAAGCUUGAGAGCAUCUUCGGAUGCAGAGGCGGCAGCCUUCGGUGGCGCGAUAGCGCCAAGGUUCUCAACUAUGACACGCAAAACGCAUGCUCCGUUGAAUGGAGUUUAUCAUG [C99G G126A], the “polymerase ribozyme fitness (log ratio)” value was -0.619. GGAUCUUCUCGAUCUAACAAAAAAGACAAAUCUGCCACAAAGCUUGAGAGCAUCUUCGGAUGCAGAGGCGGCAGCCUUCGGUGGCGCGAUAGCGCCAAGGUUCUCAACUAUGACACGCAAAACGCUUGCUCCGUUGAAUGGAGUUUAUCAUG [C99G G126U]: the “polymerase ribozyme fitness (log ratio)” value was -0.93. Take GGAUCUUCUCGAUCUAACAAAAAAGACAAAUCUGCCACAAAGCUUGAGAGCAUCUUCGGAUGCAGAGGCGGCAGCCUUCGGUGGCGCGAUAGCGCCAACUUUCUCAACUAUGACACGCAAAACGCGUGCUUCGUUGAAUGGAGUUUAUCAUG [G100U C131U]: the “polymerase ribozyme fitness (log ratio)” value is at most -4.2. With GGAUCUUCUCGAUCUAACAAAAAAGACAAAUCUGCCACAAAGCUUGAGAGCAUCUUCGGAUGCAGAGGCGGCAGCCUUCGGUGGCGCGAUAGCGCCAAAGUUCUCAACUAUGACAUGCAAAACGCGUGCUCCGUUGAAUGGAGUUUAUCAUG [C99A C116U], the “polymerase ribozyme fitness (log ratio)” value was -0.602. For GGAUCUUCUCGAUCUAACAAAAAAGACAAAUCUGCCACAAAGCUUGAGAGCAUCUUCGGAUGCAGAGGCGGCAGCCUUCGGUGGCGCGAUAGCGCCAAUGUACUCAACUAUGACACGCAAAACGCGUGCUCCGUUGAAUGGAGUUUAUCAUG [C99U U102A], the “polymerase ribozyme fitness (log ratio)” value is -1.33. To GGAUCUUCUCGAUCUAACAAAAAAGACAAAUCUGCCACAAAGCUUGAGAGCAUCUUCGGAUGCAGAGGCGGCAGCCUUCGGUGGCGCGAUAGCGCCAAUGUUCUCAACUAUGACACGCAAAACGCGUGCUCCGUUGAAUGGAGUUUAUUAUG [C99U C149U] belongs -1.17; to GGAUCUUCUCGAUCUAACAAAAAAGACAAAUCUGCCACAAAGCUUGAGAGCAUCUUCGGAUGCAGAGGCGGCAGCCUUCGGUGGCGCGAUAGCGCCAAAGUUCUCAACUAUGACACGCAAAACGCGUGCUCCGUUAAAUGGAGUUUAUCAUG [C99A G136A], -0.217. For GGAUCUUCUCGAUCUAACAAAAAAGACAAAUCUGCCACAAAGCUUGAGAGCAUCUUCGGAUGCAGAGGCGGCAGCCUUCGGUGGCGCGAUAGCGCCAAUGUUCUCAACUAUGACACGCCAAACGGGUGCUCCGGUGAAUGGAGUUUAUCAUG [C99U A119C C125G U134G], the “polymerase ribozyme fitness (log ratio)” value was -3.27.

Source of the values: the RNAGym collection of RNA variant scans (doi:10.1073/pnas.2313332121).
